Series [1] deals with T1, von Willebrand factor full length (Homo sapiens, UniProt P04275 SEQ:764-2813). The series is described as follows: filter; 43% bound at 100 nM vWF. To be noted: tags: Calbiochem 681300; label: 5'-32P. The method, then: (§1) For KD determination, chemically synthesized aptamers were purified using denaturing polyacrylamide gel electrophoresis, 5′end labeled with γ-³²P ATP and were tested for direct binding to full length human vWF (Calbiochem Cat.# 681300, La Jolla, Calif.). An 8 point protein titration was used in the dot blot binding assay (100 nM, 30 nM, 10 nM, 3 nM, 1 nM, 300 pM, 100 pM, 0 pM)) in 1× Dulbecco's PBS containing […] (final volume of 50 uL) for 30 minutes at room temperature. KD values were calculated by fitting the equation y=(max/(1+K/protein))+yint using KaleidaGraph (KaleidaGraph v. 3.51, Synergy Software).

The target in series [2] is T1, von Willebrand factor full length. The series is described as follows: filter; 17% bound at 100 nM vWF. Conditions: tags: Calbiochem 681300; label: 5'-32P. The method, then:
as §1

For series [3] the target is unchanged. Nature of the series: filter; 33% bound at 100 nM. Conditions: tags: Calbiochem 681300. The procedure: as §1
Series [4] has the same target. Nature of the series: filter; 44% bound at 100 nM. To be noted: tags: Calbiochem 681300. The procedure: as §1
Series [5] shares this target. Nature of the series: filter; 33% bound at 100 nM vWF. Conditions: tags: Calbiochem 681300; label: 5'-32P. The procedure: as §1
For series [6] the target is unchanged. The series is described as follows: filter; 29% bound at 100 nM vWF. To be noted: tags: Calbiochem 681300; label: 5'-32P. The procedure:
as §1

Series [7] has the same target. The series is described as follows: filter; 55% bound at 100 nM. To be noted: tags: Calbiochem 681300. The procedure:
as §1

Series [8] has the same target. Nature of the series: filter; 47% bound at 100 nM. Conditions: tags: Calbiochem 681300. The method, then: as §1
Series [9] shares this target. The series is described as follows: filter; 22.6% bound at 100 nM vWF. To be noted: tags: Calbiochem 681300; label: 5'-32P. The procedure:
as §1

Series [10] has the same target. Nature of the series: filter; 19.2% bound at 100 nM vWF. Conditions: tags: Calbiochem 681300; label: 5'-32P. The procedure: as §1
The target is the same in series [11]. The series is described as follows: filter; 51% bound at 100 nM vWF. To be noted: tags: Calbiochem 681300; label: 5'-32P. The method, then: as §1
Series [12] shares this target. The series is described as follows: filter; 38.2% bound at 100 nM vWF. Conditions: tags: Calbiochem 681300; label: 5'-32P. The procedure:
as §1

Series [13] shares this target. Nature of the series: filter; 38.5% bound at 100 nM vWF. Conditions: tags: Calbiochem 681300; label: 5'-32P. The procedure: as §1
For series [14] the target is unchanged. Nature of the series: filter; 26.5% bound at 100 nM vWF. To be noted: tags: Calbiochem 681300; label: 5'-32P. The procedure: as §1
Series [15] shares this target. The series is described as follows: filter; 29.0% bound at 100 nM vWF. Conditions: tags: Calbiochem 681300; label: 5'-32P. The method, then: as §1

B1: ARC1340 (mixed)
mixed: GGCGTGCAGTGCCTTCGGCCGTGCGGTGCCUCCGUCACGCC
modifications: 2'-OMe at 23, 28, 29, 31, 34-36, 3'-idT
As to B1, the Kd in series [1] is 7.4 nM.

B2: ARC1344 (mixed)
mixed: GGCGUGCAGUGCCUUCGGCCGTGCGGTGCCUCCGUCACGCC
modifications: 2'-OMe/deoxy composite with multiple PS as printed in Table 22, 3'-idT
Regarding B2, in [2], the Kd was determined as 4.8 nM.

B3: ARC1219 (ssDNA)
DNA: GGCGTGCAGTGCCTTCGGCCGTGCGGTGCCTCCGTCACGCC
modifications: 2'-OMe at 26; 3'-idT
Consider B3, for which the Kd in [3] came to 3 nM.

B4: ARC1209 (ssDNA)
DNA: GGCGTGCAGTGCCTTCGGCCGTGCGGTGCCTCCGTCACGCC
modifications: 2'-OMe at 16; 3'-idT
B4: in series [4], the Kd came to 2 nM.

B5: ARC1342 (mixed)
mixed: GGCGUGCAGUGCCUUCGGCCGTGCGGTGCCUCCGUCACGCC
modifications: 2'-OMe/deoxy composite as printed in Table 22, 3'-idT
Consider B5, for which the Kd in series [5] is 15.6 nM.

B6: ARC1345 (mixed)
mixed: GGCGUGCAGUGCCUUCGGCCGTGCGGTGCCUCCGUCACGCC
modifications: 2'-OMe/deoxy composite with PS 5' of the deoxy residues as printed in Table 22, 3'-idT
Turning to B6, the Kd in series [6] came out at 12.1 nM.

B7: ARC1195 (ssDNA)
DNA: GGCGTGCAGTGCCTTCGGCCGTGCGGTGCCTCCGTCACGCC
modifications: 2'-OMe at 2; 3'-idT
For the molecule B7, in series [7], the dissociation constant (Kd) was determined as 1 nM.

B8: ARC1211 (ssDNA)
DNA: GGCGTGCAGTGCCTTCGGCCGTGCGGTGCCTCCGTCACGCC
modifications: 2'-OMe at 18; 3'-idT
Take B8: the equilibrium dissociation constant (Kd) in series [8] came out at 2 nM.

B9: ARC1529 (mixed)
mixed: CGUGCAGUGCCUUCGGCCGTGCGGTGCCUCCGUCACG
modifications: 2'-OMe/deoxy composite, single PS, 3'-idT
For B9, the Kd in series [9] stood at 12.3 nM.

B10: ARC1530 (mixed)
mixed: CGUGCAGUGCCUUUGGCCGTGCGGTGCCUCCGUCACG
modifications: 2'-OMe/deoxy composite, single PS, 3'-idT
Consider B10, for which the Kd in [10] is 15 nM.

B11: ARC1346 (mixed)
mixed: GCGUGCAGUGCCUUCGGCCGTGCGGTGCCUCCGUCACGC
modifications: 2'-OMe/deoxy composite, 3'-idT
B11: the Kd in series [11] amounted to 11 nM.

B12: ARC1368 (mixed)
mixed: GCGUGCAGUGCCUUCGGCCGTGCGGTGCCUCCGUCACGC
modifications: 2'-OMe/deoxy composite, single PS between mG20 and dT21, 3'-idT
As for B12, in series [12], the Kd is 1.8 nM.

B13: ARC1361 (mixed)
mixed: GCGUGCAGUGCCUUCGGCCGTGCGGTGCCUCCGUCACGC
modifications: 2'-OMe/deoxy composite, 3'-idT
As for B13, the dissociation constant (Kd) in series [13] is 7.9 nM.

B14: ARC1524 (mixed)
mixed: GCGUGCAGUGCCUUCGGCCGTGCGGTGCCUCCGUCACGC
modifications: 2'-OMe/deoxy composite, single PS between mG20 and dT21, 3'-idT
Take B14: the Kd in series [14] is 5.7 nM.

B15: ARC1526 (mixed)
mixed: GCGUGCAGUGCCUUUGGCCGTGCGGTGCCUCCGUCACGC
modifications: 2'-OMe/deoxy composite, single PS, 3'-idT
Turning to B15, the Kd in series [15] turned out to be 47 nM.

Source of the values: patent US20060264369, “Aptamers to von Willebrand Factor and their use as thrombotic disease therapeutics” (published 2006).
